Measured values published in publication PMC8276696 (2021).

Molecular target: wild-type monomeric SARS-CoV-2 S receptor-binding domain (RBD) (SARS-CoV-2 (Wuhan-Hu-1), UniProt P0DTC2)
Assay: BLI

B1: CV30 IgG (antibody, V domains shown)
VH: QVQLVESGGGLIQPGGSLRLSCAASGVIVSSNYMSWVRQAPGKGLEWVSVIYSGGSTYYADSVKGRFTISRDNSKNTLYLQMNSLRAEDTAVYYCARDLDVSGGMDVWGQGTTVTVSS
VL: not shown
  Kd: 8.8 nM
